The target in this experiment is rabbit muscle fructose-1,6-bisphosphate aldolase A D128V (rabbit). The experiment is described as follows: AUC.

Experimental findings from paper PMC2631105 are described below.

Consider “rabbit muscle fructose-1,6-bisphosphate aldolase A D128V (enzyme)”, for which the stoichiometry N (in general, the number of molecules, sites or subunits per partner or assembly) came to 2.
